Data published in the Human Domainome abundance scans (Beltran et al. 2025).
± gives the uncertainty stated by the source.

B1: V(D)J recombination-activating protein 2, residues 415 to 491; numbered along this chain, P55895 (parent)
chain: YWITCCPTCDVDINTWVPFYSTELNKPAMIYCSHGDGHWVHAQCMDLAERTLIHLSAGSNKYYCNEHVEIARALHTP

Variants of: B1
Test: abundance fitness (aPCA) (normalised: wild type 0, dead -1); higher = more abundant; growth selection in yeast, the domain comes from the species named
Settings: Homo sapiens

Variant | abundance fitness
S33M | -0.106 ± 0.057
S33C | -0.057 ± 0.098
S33W | -0.072 ± 0.052
S33K | -0.132 ± 0.067
S33N | -0.06 ± 0.094
L55R | -0.111 ± 0.036
L55D | -0.152 ± 0.12
L55V | -0.082 ± 0.071
L55N | -0.062 ± 0.15
L55T | -0.174 ± 0.069
H38V | -0.776 ± 0.31
H38N | -0.689 ± 0.42
H38A | -0.986 ± 0.48
H67R | -0.253 ± 0.034
H67N | -0.32 ± 0.096
H67Q | -0.348 ± 0.058
H67W | -0.484 ± 0.055
E49N | -0.183 ± 0.14
E49K | -0.279 ± 0.1
E49A | -0.056 ± 0.046
E49Y | -0.127 ± 0.053

Variant | abundance fitness
E49I | -0.468 ± 0.15
K26A | -0.275 ± 0.3
K26T | -0.074 ± 0.38
K26R | -0.006 ± 0.12
K26S | -0.174 ± 0.28
K26W | 0.023 ± 0.18
K26V | -0.084 ± 0.23
K26P | -0.786 ± 0.36
K26L | -0.063 ± 0.14
K26N | -0.03 ± 0.17
K26M | -0.597 ± 0.35
E69T | 0.007 ± 0.13
E69A | -0.092 ± 0.33
E69P | 0.358 ± 0.38
E69D | 0.052 ± 0.16
E69G | 0 ± 0.1
V40A | -0.288 ± 0.14
V40N | -0.633 ± 0.33
V40M | -0.092 ± 0.11
V40G | -0.744 ± 0.13
V68G | 0 ± 0.091

Variant | abundance fitness
V68E | -0.439 ± 0.22
V68Q | -0.495 ± 0.48
V68M | -0.087 ± 0.2
T51H | 0.003 ± 0.14
T51F | -0.118 ± 0.12
T51W | -0.412 ± 0.11
T51E | -0.016 ± 0.093
T51P | -0.203 ± 0.098
T51S | -0.039 ± 0.073
T51K | 0.014 ± 0.12
A28H | -0.23 ± 0.34
A28K | -0.112 ± 0.3
A28M | -0.213 ± 0.28
A28Y | 0.009 ± 0.32
A28P | -0.334 ± 0.21
A28E | -0.172 ± 0.29
A28R | -0.214 ± 0.16
C32H | -0.804 ± 0.39
C32K | -1.09 ± 0.46
C32A | -1.15 ± 0.21
C32N | -0.85 ± 0.35

Variant | abundance fitness
S56Q | -0.031 ± 0.13
S56T | 0.004 ± 0.099
S56D | -0.04 ± 0.092
S56Y | 0.052 ± 0.12
S56N | -0.194 ± 0.1
S56V | 0.005 ± 0.048
S59R | -0.115 ± 0.059
S59V | -0.068 ± 0.068
S59Y | -0.031 ± 0.12
S59L | -0.087 ± 0.085
S59A | 0.078 ± 0.073
S59M | -0.042 ± 0.09
S59F | -0.088 ± 0.097
S59K | 0.053 ± 0.11
H75P | -0.111 ± 0.063
H75D | 0.094 ± 0.12
H75E | 0.029 ± 0.12
H75C | -0.155 ± 0.092
H75G | 0.087 ± 0.11
H75A | 0.002 ± 0.08
